Holding throughout (test): SPR, vs GpH7-A5/GpH7-B3/GpL16-k0 =100
In experiment [1] the target is T1, FcγRIIa(H) extracellular domain, His-tagged (human, UniProt P12318 34-217).
T1 construct: extracellular domain; also called 2aH
T1 sequence: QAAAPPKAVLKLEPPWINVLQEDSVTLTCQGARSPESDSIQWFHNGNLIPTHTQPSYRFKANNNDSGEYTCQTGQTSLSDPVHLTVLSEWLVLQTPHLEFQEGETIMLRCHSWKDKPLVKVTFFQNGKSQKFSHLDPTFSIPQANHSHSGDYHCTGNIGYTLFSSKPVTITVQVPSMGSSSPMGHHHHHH

Experiment [2] has as its target T2, FcγRIa extracellular domain, His-tagged (human, UniProt P12314 16-292).
T2 construct: extracellular domain; also called 1a

The target of experiment [3] is T3, FcγRIIIa extracellular domain, His-tagged (human, UniProt P08637 17-208).
T3 construct: extracellular domain; also called 3a

The target of experiment [4] is T4, FcγRIIa(R) extracellular domain, His-tagged (human, UniProt P12318 34-217).
T4 construct: extracellular domain; also called 2aR
T4 sequence: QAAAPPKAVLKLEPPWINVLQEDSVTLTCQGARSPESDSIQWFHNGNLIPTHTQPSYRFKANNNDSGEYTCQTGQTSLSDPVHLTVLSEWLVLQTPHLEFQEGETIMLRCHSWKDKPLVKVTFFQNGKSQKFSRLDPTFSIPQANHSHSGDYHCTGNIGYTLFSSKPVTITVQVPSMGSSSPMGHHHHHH

For experiment [5], the target named is T5, FcγRIIb extracellular domain, His-tagged (human, UniProt P31994 43-217).
T5 construct: extracellular domain; also called 2b
T5 sequence: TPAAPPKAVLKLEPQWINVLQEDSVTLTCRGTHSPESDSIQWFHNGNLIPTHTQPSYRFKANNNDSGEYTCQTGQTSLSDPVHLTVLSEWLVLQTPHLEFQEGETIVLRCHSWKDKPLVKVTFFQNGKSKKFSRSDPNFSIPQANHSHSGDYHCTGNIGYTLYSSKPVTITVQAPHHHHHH

T2 sequence (P12314 other isoform, or with tags, fused parts or gaps): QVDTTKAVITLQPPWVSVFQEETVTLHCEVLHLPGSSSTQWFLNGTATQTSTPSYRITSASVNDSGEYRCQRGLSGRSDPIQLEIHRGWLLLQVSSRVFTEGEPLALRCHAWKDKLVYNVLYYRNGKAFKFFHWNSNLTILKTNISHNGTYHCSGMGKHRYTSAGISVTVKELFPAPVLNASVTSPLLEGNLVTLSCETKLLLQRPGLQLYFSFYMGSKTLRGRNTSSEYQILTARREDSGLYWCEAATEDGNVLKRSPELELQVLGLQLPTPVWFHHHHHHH
T3 sequence (P08637 other isoform, or with tags, fused parts or gaps): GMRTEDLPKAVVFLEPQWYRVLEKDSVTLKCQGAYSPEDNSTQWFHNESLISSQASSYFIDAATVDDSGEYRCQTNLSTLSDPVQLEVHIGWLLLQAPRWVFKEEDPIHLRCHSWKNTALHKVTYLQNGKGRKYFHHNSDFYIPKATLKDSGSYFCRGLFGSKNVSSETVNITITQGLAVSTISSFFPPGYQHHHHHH

B1: GpH7-A5/GpH7-B3 variant Q295_08L/GpL16-k0 (antibody, human IgG1, kappa)
heavy 1: not shown
heavy 2: not shown
light: DIVMTQSPLSLPVTPGEPASISCQASESLVHSNRNTYLHWYLQKPGQSPQLLIYKVSNRFSGVPDRFSGSGSGTDFTLKISRVEAEDVGVYYCSQNTHVPPTFGQGTKVEIERTVAAPSVFIFPPSDEQLKSGTASVVCLLNNFYPREAKVQWKVDNALQSGNSQESVTEQDSKDSTYSLSSTLTLSKADYEKHKVYACEVTHQGLSSPVTKSFNRGEC
On to B1, for which the “He/Con 2aH” value in experiment [1] was 128 % of control. In addition, the “He/Con 1a” value in experiment [2] was 103 % of control. The “He/Con 3a” value in experiment [3] is 120 % of control. In addition, the “He/Con 2aR” value in experiment [4] is 118 % of control. Also, the “He/Con 2b” value in experiment [5] was 134 % of control.

B2: GpH7-A5/GpH7-B3 variant Q295_16H/GpL16-k0 (antibody, human IgG1, kappa)
heavy 1: not shown
heavy 2: not shown
light: DIVMTQSPLSLPVTPGEPASISCQASESLVHSNRNTYLHWYLQKPGQSPQLLIYKVSNRFSGVPDRFSGSGSGTDFTLKISRVEAEDVGVYYCSQNTHVPPTFGQGTKVEIERTVAAPSVFIFPPSDEQLKSGTASVVCLLNNFYPREAKVQWKVDNALQSGNSQESVTEQDSKDSTYSLSSTLTLSKADYEKHKVYACEVTHQGLSSPVTKSFNRGEC
For B2, the “He/Con 2aH” value in experiment [1] was 90.1 % of control. The “He/Con 1a” value in experiment [2] was 101 % of control. Moreover, in experiment [3], the “He/Con 3a” value was 80.2 % of control. The “He/Con 2aR” value in experiment [4] was 80.5 % of control. For the same molecule, the “He/Con 2b” value in experiment [5] is 70.3 % of control.

B3: GpH7-A5/GpH7-B3 variant Q295_11K/GpL16-k0 (antibody, human IgG1, kappa)
heavy 1: not shown
heavy 2: not shown
light: DIVMTQSPLSLPVTPGEPASISCQASESLVHSNRNTYLHWYLQKPGQSPQLLIYKVSNRFSGVPDRFSGSGSGTDFTLKISRVEAEDVGVYYCSQNTHVPPTFGQGTKVEIERTVAAPSVFIFPPSDEQLKSGTASVVCLLNNFYPREAKVQWKVDNALQSGNSQESVTEQDSKDSTYSLSSTLTLSKADYEKHKVYACEVTHQGLSSPVTKSFNRGEC
With B3, the “He/Con 2aH” value in experiment [1] is 102 % of control. In experiment [2], the “He/Con 1a” value is 99.7 % of control. Moreover, the “He/Con 3a” value in experiment [3] was 81.8 % of control. The “He/Con 2aR” value in experiment [4] is 88.1 % of control. In addition, the “He/Con 2b” value in experiment [5] was 79 % of control.

B4: GpH7-A5/GpH7-B3 variant Q295_15Y/GpL16-k0 (antibody, human IgG1, kappa)
heavy 1: not shown
heavy 2: not shown
light: DIVMTQSPLSLPVTPGEPASISCQASESLVHSNRNTYLHWYLQKPGQSPQLLIYKVSNRFSGVPDRFSGSGSGTDFTLKISRVEAEDVGVYYCSQNTHVPPTFGQGTKVEIERTVAAPSVFIFPPSDEQLKSGTASVVCLLNNFYPREAKVQWKVDNALQSGNSQESVTEQDSKDSTYSLSSTLTLSKADYEKHKVYACEVTHQGLSSPVTKSFNRGEC
Regarding B4, the “He/Con 2aH” value in experiment [1] was 89.3 % of control. In addition, the “He/Con 1a” value in experiment [2] is 100 % of control. Besides, the “He/Con 3a” value in experiment [3] was 81.5 % of control. For the same molecule, in experiment [4], the “He/Con 2aR” value was 82 % of control. Also, the “He/Con 2b” value in experiment [5] is 73.3 % of control.

B5: GpH7-A5/GpH7-B3 variant S239_01G/GpL16-k0 (antibody, human IgG1, kappa)
heavy 1: not shown
heavy 2: not shown
light: DIVMTQSPLSLPVTPGEPASISCQASESLVHSNRNTYLHWYLQKPGQSPQLLIYKVSNRFSGVPDRFSGSGSGTDFTLKISRVEAEDVGVYYCSQNTHVPPTFGQGTKVEIERTVAAPSVFIFPPSDEQLKSGTASVVCLLNNFYPREAKVQWKVDNALQSGNSQESVTEQDSKDSTYSLSSTLTLSKADYEKHKVYACEVTHQGLSSPVTKSFNRGEC
Regarding B5, the “He/Con 2aH” value in experiment [1] was 93.8 % of control. The “He/Con 1a” value in experiment [2] is 104 % of control. In addition, in experiment [3], the “He/Con 3a” value is 72 % of control. Besides, in experiment [4], the “He/Con 2aR” value was 120 % of control. The “He/Con 2b” value in experiment [5] was 146 % of control.

B6: GpH7-A5/GpH7-B3 variant Q295_12R/GpL16-k0 (antibody, human IgG1, kappa)
heavy 1: not shown
heavy 2: not shown
light: DIVMTQSPLSLPVTPGEPASISCQASESLVHSNRNTYLHWYLQKPGQSPQLLIYKVSNRFSGVPDRFSGSGSGTDFTLKISRVEAEDVGVYYCSQNTHVPPTFGQGTKVEIERTVAAPSVFIFPPSDEQLKSGTASVVCLLNNFYPREAKVQWKVDNALQSGNSQESVTEQDSKDSTYSLSSTLTLSKADYEKHKVYACEVTHQGLSSPVTKSFNRGEC
For B6, the “He/Con 2aH” value in experiment [1] is 96.4 % of control. Also, the “He/Con 1a” value in experiment [2] is 98.8 % of control. The “He/Con 3a” value in experiment [3] was 73.2 % of control. Besides, the “He/Con 2aR” value in experiment [4] is 82.2 % of control. Also, the “He/Con 2b” value in experiment [5] was 73.1 % of control.

B7: GpH7-A5/GpH7-B3 variant Q295_10E/GpL16-k0 (antibody, human IgG1, kappa)
heavy 1: not shown
heavy 2: not shown
light: DIVMTQSPLSLPVTPGEPASISCQASESLVHSNRNTYLHWYLQKPGQSPQLLIYKVSNRFSGVPDRFSGSGSGTDFTLKISRVEAEDVGVYYCSQNTHVPPTFGQGTKVEIERTVAAPSVFIFPPSDEQLKSGTASVVCLLNNFYPREAKVQWKVDNALQSGNSQESVTEQDSKDSTYSLSSTLTLSKADYEKHKVYACEVTHQGLSSPVTKSFNRGEC
B7: in experiment [1], the “He/Con 2aH” value is 112 % of control. In addition, the “He/Con 1a” value in experiment [2] was 101 % of control. Also, in experiment [3], the “He/Con 3a” value is 105 % of control. Moreover, the “He/Con 2aR” value in experiment [4] is 101 % of control. Besides, the “He/Con 2b” value in experiment [5] was 106 % of control.

B8: GpH7-A5/GpH7-B3 variant Q295_09D/GpL16-k0 (antibody, human IgG1, kappa)
heavy 1: not shown
heavy 2: not shown
light: DIVMTQSPLSLPVTPGEPASISCQASESLVHSNRNTYLHWYLQKPGQSPQLLIYKVSNRFSGVPDRFSGSGSGTDFTLKISRVEAEDVGVYYCSQNTHVPPTFGQGTKVEIERTVAAPSVFIFPPSDEQLKSGTASVVCLLNNFYPREAKVQWKVDNALQSGNSQESVTEQDSKDSTYSLSSTLTLSKADYEKHKVYACEVTHQGLSSPVTKSFNRGEC
B8: in experiment [1], the “He/Con 2aH” value is 62.6 % of control. For the same molecule, the “He/Con 1a” value in experiment [2] is 98.5 % of control. The “He/Con 3a” value in experiment [3] is 85.6 % of control. In experiment [4], the “He/Con 2aR” value was 68.7 % of control. For the same molecule, the “He/Con 2b” value in experiment [5] was 68.1 % of control.

B9: GpH7-A5/GpH7-B3 variant Q295_13S/GpL16-k0 (antibody, human IgG1, kappa)
heavy 1: not shown
heavy 2: not shown
light: DIVMTQSPLSLPVTPGEPASISCQASESLVHSNRNTYLHWYLQKPGQSPQLLIYKVSNRFSGVPDRFSGSGSGTDFTLKISRVEAEDVGVYYCSQNTHVPPTFGQGTKVEIERTVAAPSVFIFPPSDEQLKSGTASVVCLLNNFYPREAKVQWKVDNALQSGNSQESVTEQDSKDSTYSLSSTLTLSKADYEKHKVYACEVTHQGLSSPVTKSFNRGEC
For B9, the “He/Con 2aH” value in experiment [1] was 79.5 % of control. The “He/Con 1a” value in experiment [2] is 100 % of control. Besides, the “He/Con 3a” value in experiment [3] is 90.4 % of control. Besides, the “He/Con 2aR” value in experiment [4] was 73 % of control. Besides, in experiment [5], the “He/Con 2b” value is 63.8 % of control.

B10: GpH7-A5/GpH7-B3 variant Q295_18N/GpL16-k0 (antibody, human IgG1, kappa)
heavy 1: not shown
heavy 2: not shown
light: DIVMTQSPLSLPVTPGEPASISCQASESLVHSNRNTYLHWYLQKPGQSPQLLIYKVSNRFSGVPDRFSGSGSGTDFTLKISRVEAEDVGVYYCSQNTHVPPTFGQGTKVEIERTVAAPSVFIFPPSDEQLKSGTASVVCLLNNFYPREAKVQWKVDNALQSGNSQESVTEQDSKDSTYSLSSTLTLSKADYEKHKVYACEVTHQGLSSPVTKSFNRGEC
Take B10: the “He/Con 2aH” value in experiment [1] was 87.8 % of control. Further, the “He/Con 1a” value in experiment [2] is 101 % of control. Further, in experiment [3], the “He/Con 3a” value was 85.7 % of control. The “He/Con 2aR” value in experiment [4] is 81.7 % of control. Further, in experiment [5], the “He/Con 2b” value was 72.8 % of control.

B11: GpH7-A5/GpH7-B3 variant Q295_14T/GpL16-k0 (antibody, human IgG1, kappa)
heavy 1: not shown
heavy 2: not shown
light: DIVMTQSPLSLPVTPGEPASISCQASESLVHSNRNTYLHWYLQKPGQSPQLLIYKVSNRFSGVPDRFSGSGSGTDFTLKISRVEAEDVGVYYCSQNTHVPPTFGQGTKVEIERTVAAPSVFIFPPSDEQLKSGTASVVCLLNNFYPREAKVQWKVDNALQSGNSQESVTEQDSKDSTYSLSSTLTLSKADYEKHKVYACEVTHQGLSSPVTKSFNRGEC
For the molecule B11, the “He/Con 2aH” value in experiment [1] is 86.2 % of control. Further, the “He/Con 1a” value in experiment [2] was 101 % of control. The “He/Con 3a” value in experiment [3] is 120 % of control. Moreover, the “He/Con 2aR” value in experiment [4] was 79.2 % of control. In addition, the “He/Con 2b” value in experiment [5] was 74.9 % of control.

The record behind these values is patent US20260167699A1 (Chugai, published 2026).
